Test results: article PMC1780049, “Functional analysis of Arabidopsis WRKY25 transcription factor in plant defense against Pseudomonas syringae”

T1: WRKY25 (Arabidopsis, UniProt O22921 1-393)
T1 sequence: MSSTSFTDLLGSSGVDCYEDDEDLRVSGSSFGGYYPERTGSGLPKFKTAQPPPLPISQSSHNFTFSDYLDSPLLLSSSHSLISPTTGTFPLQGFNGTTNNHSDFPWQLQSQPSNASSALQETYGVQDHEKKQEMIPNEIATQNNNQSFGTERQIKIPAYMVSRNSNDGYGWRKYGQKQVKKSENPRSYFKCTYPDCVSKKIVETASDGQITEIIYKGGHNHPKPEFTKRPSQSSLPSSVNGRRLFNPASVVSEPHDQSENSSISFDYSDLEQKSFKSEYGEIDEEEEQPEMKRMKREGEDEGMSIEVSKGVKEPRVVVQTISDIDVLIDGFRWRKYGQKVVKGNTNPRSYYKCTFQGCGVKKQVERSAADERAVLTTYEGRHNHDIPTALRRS


Biological target: T1, WRKY25
Test: EMSA; poly(dIdC) 5 ug; 12 ul nuclear extraction buffer (25 mM HEPES/KOH pH 7.5, 40 mM KCl, 0.1 mM EDTA, 10% glycerol, 1 mM DTT, PMSF), 5 ug poly(dIdC), 1 ug protein, 2 ng labelled dsDNA; room temperature 30 min; 10% PAGE in 0.5x TBE at 4 C
Settings: protein: recombinant, tags: His-tagged, pET32a (EcoRI/XhoI) vector fusion, (Klenow labelled, ~10^5 cpm/ng)

Binder	binding result
Pchn5 (dsDNA) DNA 1: GGAACTTGACCATCCGTTGACCGGGCTGCAGGAATTCG DNA 2: CGAATTCCTGCAGCCCGGTCAACGGATGGTCAAGTTCC	binds
mPchn5 (dsDNA) DNA 1: GGAACTTGAACATCCGTTGAACGGGCTGCAGGAATTCG DNA 2: CGAATTCCTGCAGCCCGTTCAACGGATGTTCAAGTTCC	no binding
